Results from paper PMC5835687, “Great Cause—Small Effect: Undeclared Genetically Engineered Orange Petunias Harbor an Inefficient Dihydroflavonol 4-Reductase” (Frontiers in Plant Science, 2018).

B1: recombinant PhDFR (Petunia × hybrida DFR) (Petunia x hybrida) (protein)
chain: MASEAVHAPSPPVAVPTVCVTGAAGFIGSWLVMRLLERGYNVHATVRDPENKKKVKHLLELPKADTNLTLWKADLTVEGSFDEAIQGCQGVFHVATPMDFESKDPENEVIKPTVRGMLSIIESCAKANTVKRLVFTSSAGTLDVQEQQKLFYDQTSWSDLDFIYAKKMTGWMYFASKILAEKAAMEEAKKKNIDFISIIPPLVVGPFITPTFPPSLITALSLITGNEAHYCIIKQGQYVHLDDLCEAHIFLYEHPKADGRFICSSHHAIIYDVAKMVREKWPEYYVPTEFKGIDKDLPVVSFSSKKLTDMGFQFKYTLEDMYKGAIDTCRQKQLLPFSTRSAEDNGHNREAIAISAQNYASGKENAPVANHTEMLSNVEV
B2: recombinant A1 protein (maize DFR) (Zea mays) (protein)
chain: MERGAGASEKGTVLVTGASGFVGSWLVMKLLQAGYTVRATVRDPANVGKTKPLMDLPGATERLSIWKADLAEEGSFHDAIRGCTGVFHVATPMDFLSKDPENEVIKPTVEGMISIMRACKEAGTVRRIVFTSSAGTVNLEERQRPVYDEESWTDVDFCRRVKMTGWMYFVSKTLAEKAALAYAAEHGLDLVTIIPTLVVGPFISASMPPSLITALALITGNAPHYSILKQVQLIHLDDLCDAEIFLFENPAAAGRYVCSSHDVTIHGLAAMLRDRYPEYDVPQRFPGIQDDLQPVRFSSKKLQDLGFTFRYKTLEDMFDAAIRTCQEKGLIPLATAAGGDGFASVRAPGETEATIGA
notes: full-length A1 cDNA in pGEX-6P-1, GST fusion from E. coli, GST tag removed, purified; A1 CDS 1,074 bp

Experiments:
purified protein = substrate: O=C1c2c(O)cc(O)cc2O[C@H](c2cc(O)c(O)c(O)c2)[C@H]1O; assay: purified protein; conditions: NADPH-dependent reduction; labelled compound
[1] = substrate: O=C1c2c(O)cc(O)cc2O[C@H](c2ccc(O)c(O)c2)[C@H]1O; assay: DFR enzyme assay, radiolabelled substrate, as previously described; type: biochemical, Zea mays; conditions: NADPH-dependent reduction; labelled compound

| Protein | Km (purified protein) [µM] | kcat (purified protein) [s⁻¹] | Km [1] [µM] | kcat [1] [s⁻¹] |
| --- | --- | --- | --- | --- |
| B1 | 1.3 | 2.14 | – | – |
| B2 | 3.1 | 0.87 | 2.9 | 0.70 |
